For one series, the target named is T1, CHL1 (Arabidopsis thaliana, UniProt Q05085).
T1 construct: gene NPF6.3; cRNA-injected Xenopus laevis oocytes, positive control
T1 sequence (Q05085 1-590): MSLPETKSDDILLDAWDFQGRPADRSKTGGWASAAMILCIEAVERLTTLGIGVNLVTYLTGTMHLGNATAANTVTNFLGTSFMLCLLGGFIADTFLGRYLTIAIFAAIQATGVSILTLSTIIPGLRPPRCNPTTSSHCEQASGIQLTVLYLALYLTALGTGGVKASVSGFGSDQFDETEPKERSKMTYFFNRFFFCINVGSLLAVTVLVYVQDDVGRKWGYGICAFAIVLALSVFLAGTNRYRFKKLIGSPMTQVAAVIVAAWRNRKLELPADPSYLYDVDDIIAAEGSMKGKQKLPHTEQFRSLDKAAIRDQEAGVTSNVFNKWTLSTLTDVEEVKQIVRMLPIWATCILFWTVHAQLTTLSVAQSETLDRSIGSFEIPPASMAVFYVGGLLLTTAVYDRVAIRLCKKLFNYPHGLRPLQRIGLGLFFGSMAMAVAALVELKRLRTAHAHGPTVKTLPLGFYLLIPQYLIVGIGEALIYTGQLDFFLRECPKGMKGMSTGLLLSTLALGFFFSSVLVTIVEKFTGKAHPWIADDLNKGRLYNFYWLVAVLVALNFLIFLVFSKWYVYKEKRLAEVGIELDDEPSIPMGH
As to the kind of experiment: […]-nitrate uptake in cRNA-injected Xenopus oocytes, mass spectrometry. It is filed as cell-based. The note with it: pH 5.5, 0.25 mM 15N-nitrate, 12 h; positive control; labelled compound (15N).

Substrate in series [1]: O=[N+]([O-])O
As to the kind of experiment: cells, lysate or membranes. Format: cell-based, Arabidopsis thaliana. The note with it: pH 5.5, 1.5 h, 0.25-30 mM, labelled compound (15N).

Turning to `O=[N+]([O-])O` [nitrate], the “15N-nitrate uptake in cRNA-injected Xenopus oocytes, mass spectrometry” value at CHL1 is reported as “CHL1-injected oocytes still showed high uptake activity”.

B1: NPF5.11 (Arabidopsis thaliana) (protein)
chain: MAITYSSADELGNTTEGFLEIRENTSGGWKSARLIIVVQMAERFAYFGIASNLIMYLTGPLGESTAAAAANVNAWTGTVAFLPLLGGFLADSYLGRFRTIIISSSLYILGLGLLSFSTMIPSHQSKDSNQLQETIFFFSLYLVAIGQGGYNPCIKVFGADQFDGNDHKEARDKSSFFNWLMFGNCISILTTRLVSTYIQENLSWSLGFGIPSVSMLLSLFLFLLGTTSYRFSTERVGKKNPFARISRVFMEALKNRRQPDLDIANANANETLLLLAHQSSKQFRFLDRAAISCELAEIEEAKAVLRLIPIWITSVVYTIVHAQSPTFFTKQGATMDRSISPGLLVPAATLQSFINLSVVVFIPIYDRLLVPFARSFTQNSSGITTLQRIGTGIFLSILAMVLAALVETKRLQAARDELSIPMSVWWLIPQYVIFGVSDMFTMVGLQEFFYGQVPSELRSVGMALNLSIYGAGNYLSSFMISVIDKITNQYGQRSWFDNDLDQAHLDYFYWLLACLGFIGFAFYLWFAKSYVYSRSNTF
notes: cDNA in oocyte vector pOO2, cRNA-injected Xenopus laevis oocytes; EYFP fusion used for localization
On to B1, for which the Km in series [1] came to 2570 µM.

B2: NPF5.16 (Arabidopsis thaliana) (protein)
chain: MAIAEEEAALIEDSVSDSVDHRGLPAGKSSTGGWRSAWYIIGVEVGERFAYFGIGSNLITYLTGPLGQSTATAAVNVNTWSGTASILPVLGAFIADAYLGRYRTIVVASLIYILGLGLLTLSSILILMGLSEQRQHNRNASAKPFFWVNILFFCSLYLVAIGQGGHKPCVQAFGADQFDVGDPKERISRGSFFNWWFLSLSAGITLSIIVVVYVQDNVNWALGFGIPCLFMVMALALFLFGRKTYRYPRGDREGKNNAFARIGRVFLVAFKNRKLKLTHSGQLEVGSYKKCKGQLEFLAKALLPGEGGVEPCSSRDVEDAMALVRLIPIWITSVVSTIPYAQYATFFTKQGVTVDRKILPGFEIPPASFQALIGLSIFISVPTYERVFLPLARLITKKPSGITMLQRIGAGMVLSSLNMVVAALVEMKRLETAKEHGLVDRPDATIPMSIWWFVPQYLLLGMIDVFSLVGTQEFFYDQVPTELRSIGLALSLSAMGLASFLSGFLITVINWATGKNGGDSWFNTNLNRAHVDYFYWLLAAFTAIGFLAFLLLSRLYVYRRVDQV
notes: as for B1
On to B2, for which the Km in series [1] worked out at 2910 µM.

B3: NPF5.12 (Arabidopsis thaliana) (protein)
chain: MSTSIGDNETGAIVSNENVEFSVDFRGNPSIRSSSGAWKSSGFTMCAEVAEKFAYFGIASNLITYFTEALGESTAVAASNVNLWLGTAAFLPLIWGSIADSFLGRFRTILLTSSFYIMGLGLLTFSATIPSLCNDQETRESCVSQVKVIIFFCALYLIALGEGGFKVCLRAFGADQFDEQDPNESKAKSSYFNWLYFAISIGILTTRLVTNYVQENLSWALGYAIPCLSMMLALFLFLLGIKTYRFSTGGEGRQGKKHDNPFVRIGRVFVAAARNRRQTPSDTCLLLPNESTKKFRFLDRAVISCDSYEVEEAKAVLSLIPIWLCSLVFGIVFAQSPTFFTKQGSTMDRSISSTLQVPAATLQCFISLAILVFIPIYDRLFVPIARSITRKPAGITTLQRISTGIFLSIISMVIAALVEMKRLKTARDHGLVDSPKATVPMSVCWLIPQYILFGVSDVFTMVGLQEFFYGEVPPQLRSMGLALYLSIIGIGNFLSSFMVSVIEEATSQSGQVSWFSNNLNQAHLDYFYWLLACLSSLAFIFTVYFAKSYLYNSPK
notes: as for B1
On to B3, for which the Michaelis-Menten constant (Km) in series [1] was 4840 µM.

The values are drawn from PMC5526873, “Tonoplast-localized nitrate uptake transporters involved in vacuolar nitrate efflux and reallocation in Arabidopsis” (Scientific Reports, 2017).
